This is an account of results in article PMC9163516.

Test [1] deals with TβRI ectodomain (UniProt P36897). Nature of the test: ITC; TGF-β3(TβRII)2 complex titrated into TβRI; 25 mM Hepes, 50 mM NaCl, 0.05% NaN3, pH 7.5, 30 °C. A general note: In ITC the heat of successive injections is recorded.
Test [2] concerns the target biotinylated avi-tagged TβRII (UniProt P37173).
Test [3] addresses TβRI ectodomain (UniProt P36897). Nature of the test: ITC; TGM construct in the syringe (58-150 µM), 7.5 µM TβRI in the cell; 25 mM Hepes, 50 mM NaCl, 0.05% NaN3, pH 7.5, 25 °C; 1:1 model (Nitpic, Sedphat).
In test [4] the target is TβRII ectodomain (UniProt P37173). Nature of the test: ITC; TGM construct titrated into TβRII in the cell; 25 mM sodium phosphate, 50 mM NaCl, pH 6.0, 35 °C; 1:1 model.
The target of test [5] is biotinylated avi-tagged TβRII (UniProt P37173). Nature of the test: SPR; BIAcore X100; biotinylated avi-tagged TβRI or TβRII captured on neutravidin-coated CM-5 chip (results say streptavidin) at 50-150 RU; TGM constructs injected as 2-fold dilution series in 25 mM Hepes, pH 7.4, 150 mM NaCl, 0.005% P20, 100 μl/min; 1:1 kinetic fit of a single injection series. Background: In SPR one partner is held on a chip, and binding of the other changes the refractive index at the surface.

Test [6] has the same target. Description: SPR; biotinylated avi-tagged TβRII captured at 50-150 RU on neutravidin-coated CM-5 chip; WT TGM-D3 or TGM-D3 variants injected in 25 mM Hepes, pH 7.4, 150 mM NaCl, 0.05% P20, 100 μl/min; 1:1 fit of duplicate or triplicate injection series.
For test [7] the target is unchanged. Described as above. The source holds these as a separate data set.
Test [8] has as its target TβRII ectodomain (UniProt P37173). Description: ITC; TGM construct in the syringe (300-320 µM), 15 µM TβRII in the cell; 25 mM sodium phosphate, 50 mM NaCl, pH 6.0, 35 °C; 1:1 model (Nitpic, Sedphat).
In test [9] the target is biotinylated avi-tagged TGM-D3 (Heligmosomoides polygyrus). Nature of the test: SPR; biotinylated avi-tagged TGM-D3 captured at 50-150 RU on neutravidin-coated CM-5 chip; TβRII variants injected in 25 mM Hepes, pH 7.4, 150 mM NaCl, 0.05% P20, 100 μl/min; 1:1 fit of duplicate or triplicate injection series.
The target in test [10] is TβRI ectodomain (UniProt P36897). Description: ITC; TGM construct titrated into TβRI in the cell; 25 mM Hepes, 50 mM NaCl, 0.05% NaN3, pH 7.5, 25 °C; 1:1 model.
For test [11], the target named is biotinylated avi-tagged TβRI (UniProt P36897). Description: SPR; BIAcore X100; biotinylated avi-tagged TβRI or TβRII captured on neutravidin-coated CM-5 chip (results say streptavidin) at 50-150 RU; TGM constructs injected as 2-fold dilution series in 25 mM Hepes, pH 7.4, 150 mM NaCl, 0.005% P20, 100 μl/min; 1:1 kinetic fit of a single injection series.
For test [12], the target named is TβRII ectodomain (UniProt P37173). Description: ITC; competition: 150 μM mmTGF-β27M injected into 15 μM TβRII with 0, 6.0 or 12.0 μM TGM-D3; 25 mM sodium phosphate, 50 mM NaCl, pH 6.0, 35 °C; global fit of the three datasets to a 1:1 model with competition.

Where two headings read alike, the source gives them in different places.

As for “TGF-β3(TβRII)2 binary complex (from UniProt P37173 23-166)”, in the test with TβRI ectodomain [1], the dissociation constant Kd (as a rule, the concentration at which binding is half-saturated) came out at 0.061 µM and the dH was -17.6 kJ/mol.
In [2], “TGM D13 (TGM D1-D3), wild type (domain or fragment)” gave an EC50 of signaling, MFB-F11 TGF-β reporter bioassay of 3.9 ng/mL.
With TGM D13 I238A (domain or fragment), the EC50 of signaling, MFB-F11 TGF-β reporter bioassay in [2] was 9.7 ng/mL.
TGM D13 I256A (domain or fragment): the EC50 of signaling, MFB-F11 TGF-β reporter bioassay in [2] was determined as 4.5 ng/mL.
In the case of TGM D13 Y252A (domain or fragment), the EC50 of signaling, MFB-F11 TGF-β reporter bioassay in [2] came out at 7 ng/mL.
As to TGM-D2 (domain or fragment), in the test with TβRI ectodomain [3], the Kd amounted to 1.5 µM and the stoichiometry N – broadly, a count of units in the complex or per binding partner – was 0.54.
For the substance TGM-D3 (domain or fragment), the stoichiometry N in the test with TβRII ectodomain [4] turned out to be 1. In addition, in [5], the Kd worked out at 0.91 µM; the koff (commonly the rate constant with which the complex falls apart) was 0.6 s⁻¹; the kon (in general, the second-order rate constant of association) came out at 600000 M⁻¹ s⁻¹.
TGM-D3 F235A (domain or fragment): in test [6], the fold increase of KD against WT stood at 4 fold.
For TGM-D3 I238A (domain or fragment), the fold increase of KD against WT in [6] is greater than 20 fold.
As for TGM-D3 K254A (domain or fragment), the fold increase of KD against WT in [6] is greater than 20 fold; in test [7], greater than 30 fold.
Regarding TGM-D3 R198A (domain or fragment), the fold increase of KD against WT in test [6] is greater than 20 fold; in test [7] it was greater than 30 fold.
With TGM-D3 V236A (domain or fragment), the fold increase of KD against WT in [6] was 4 fold.
For the substance TGM-D3 Y252A (domain or fragment), the fold increase of KD against WT in test [6] was greater than 20 fold.
With TGM-D12 (domain or fragment), the stoichiometry N in the test with TβRI ectodomain [3] came to 1.2.
On to TGM-FL (natural protein), for which, in the test with TβRII ectodomain [8], the Kd is 0.55 µM and the stoichiometry N is 0.84. For the same substance, in the test with TβRI ectodomain [3], the equilibrium dissociation constant (Kd) is 0.052 µM and the stoichiometry N is 0.96.
In test [9], “TβRII E142Q (from UniProt P37173 23-166) (receptor)” returned a fold increase of KD against WT of 17 fold.
Consider “TβRII I73A (from UniProt P37173 23-166) (receptor)”, for which the fold increase of KD against WT in test [9] is 7 fold.
For the substance “TβRII I76A (from UniProt P37173 23-166) (receptor)”, in test [9], the fold increase of KD against WT turned out to be 26 fold.
The same measure, in the same setting: as for “TβRII S75L (from UniProt P37173 23-166) (receptor)”, the figure is 200 fold.
The substance “full-length TGM (TGF-β mimic) (natural protein)” yielded a stoichiometry N with TβRI ectodomain [10] of 1. Besides, the stoichiometry N with TβRII ectodomain [4] worked out at 1. Also, in test [11], the Kd turned out to be 0.013 µM, the koff stood at 0.00078 s⁻¹ and the association rate constant (kon) was determined as 59000 M⁻¹ s⁻¹. In test [5], the Kd is 0.61 µM, the off-rate (koff) was 0.1 s⁻¹ and the kon came out at 2e+07 M⁻¹ s⁻¹.
In the case of “mmTGF-β27M, engineered TGF-β monomer (from UniProt P61812) (ligand)”, the Kd in the test with TβRII ectodomain [12] came to 0.035 µM. This counts as double-digit nanomolar.
